Laboratory results reported in patent publication US20190225691A1 (SHANGHAI HENLIUS BIOTECH, published 2019).
Where two headings read alike, the source gives them in different places.

Experiments:
human PD-L1 ECD-His [1] = biological target: T1, human PD-L1 ECD-His (human, UniProt Q9NZQ7 19-238); assay: SPR, 25 C, antibody captured by anti-human IgG Fc, hPD-L1_ECD-His analyte, 1:1 fit
T1 construct: extracellular domain; Analyte in all SPR and BLI runs; also called hPD-L1_ECD-His; hPD-L1 ECD-His; not shown: His tag
Protocol: Experiments were carried out at 25° C., and measurements were made with serial dilutions of hPD-L1_ECD-His from 55.4 nM to 11.1 nM passing over the captured antibodies in HBS-P+ buffer supplemented with 0.1% (w/v) BSA with a flow rate of […]. All data were analyzed with the evaluation software and curves were fit with a 1:1 Langmuir binding model. Data are representative of two independent experiments performed in duplicate.

[2] = biological target: T2, human PD-L1 on cells (PHA-activated human T cells); PD-L1-transfected CHO-S cells; A375 melanoma cells; … (human, UniProt Q9NZQ7 19-290); assay: flow cytometry blocking assay: PD-L1 expressing CHO-S cells incubated with antibody, then biotin-labeled PD-1-Fc and streptavidin-PE; MFI of bound PD-1
T2 construct: whole, on cells; also called PD-L1 expressing T cells; PD-L1 expressing CHO-S cells
Protocol: PD-L1 expressing CHO-S cells were suspended in FACS buffer (PBS with 4% FBS). Various concentrations of tested antibodies were added to the cell suspension (3.5E5 cells/well) and incubated at 4° C. for 30 minutes. […] The cells were washed and then stained with streptavidin-PE at 4° C. for 30 minutes. Flow cytometric analyses were performed using the Cytomics FC 500 (Beckman Coulter Inc.).
Anti-PD-L1 reference antibody and Avastin were used as the positive and negative control, respectively.

[3] = biological target: T2, human PD-L1 on cells (PHA-activated …); assay: flow cytometry on PHA-activated human CD3+ T cells, FITC-labeled anti-human IgG Fcγ, MFI
Protocol: Human T cells were isolated from PBMC using MagniSortTM Human T Cell Enrichment Kit (eBioscience). Isolated T cells were activated by 5 μg/mL phytohemagglutinin (PHA) for 3 days to stimulate the PD-L1 expression. Activated T cells were collected and incubated in FACS buffer (PBS with 2% FBS) with human Fc blocker (eBioscience) for 20 minutes at 4° C. Binding of anti-PD-L1 monoclonal antibody was assessed by incubating the activated T cells with the serial-diluted antibodies in FACS buffer. The cells were washed with flow buffer and the binding was detected with a FITC-labeled rabbit anti-human IgG FcγAb. Cells were also stained with mouse anti-human CD3 PE-Cy7 (eBioscience) for gating CD3-positive T cells. Flow cytometric analyses were performed using the Cytomics FC 500 (Beckman Coulter Inc.).

[4] = biological target: T3, recombinant human PD-L1/Fc fusion protein (human, UniProt Q9NZQ7 19-238); assay: ELISA: human PD-L1/Fc coated (15 ng/well), serially diluted antibody, HRP-conjugated secondary antibody, TMB, A450
T3 construct: also called hPD-L1 ECD-Fc; not shown: Fc part
Protocol: ELISA assays were performed to assess the binding of selected antibodies to recombinant human PD-L1/Fc fusion proteins. Fifteen nanograms per well of human PD-L1/Fc proteins were coated on 96-well EIA microplate overnight at 4° C. After blocking with 5% skim milk, serially diluted antibodies were added and incubated at RT for 1 hour. The unbound antibodies were removed and wells were washed with PBST twice. The HRP-conjugated secondary antibody was added to the wells, and, following an incubation, excess secondary antibody was washed away. TMB was added to the wells, and following incubation, the reaction was stopped, and HRP activity was measured by monitoring the increase in absorbance at 450 nm.

human PD-L1 ECD-His [5] = biological target: T1, human PD-L1 ECD-His; assay: SPR, ratio of KD to ref-1
human PD-L1 ECD-His [6] = biological target: T1, human PD-L1 ECD-His; assay: SPR, hPD-L1-His, comparison of IgG isotypes of PL2#3
human PD-L1 ECD-His [7] = biological target: T1, human PD-L1 ECD-His; assay: SPR, 25 C, antibody captured by anti-human IgG Fc, hPD-L1-His analyte, 1:1 fit
Protocol: (§1) The binding affinity and kinetics were measured using surface plasmon resonance (SPR). […] Experiments were carried out at 25° C., and measurements were made with serial dilutions of hPD-L1-His from 19.1 nM to 0.71 nM passing over the captured antibodies in HBS-P+buffer supplemented with 0.1% (w/v) BSA with a flow rate of 25 μL/min. All data were analyzed with the evaluation software and curves were fit with a 1:1 Langmuir binding model. All the data are representative of two independent studies performed in duplicate.

human PD-L1 ECD-His [8] = biological target: T1, human PD-L1 ECD-His; assay: SPR, ratio of KD to ref-1; remark: listed apart in the source
Protocol: as §1

[9] = biological target: T2, human PD-L1 on cells (PHA-activated …); assay: flow cytometry on PHA-activated human T cells, biotin-labeled anti-human IgG Fcγ and streptavidin-PE, MFI
[10] = biological target: T2, human PD-L1 on cells (PHA-activated …); assay: flow cytometry on NCI-H292 human NSCLC cells, biotin-labeled anti-human IgG Fcγ and streptavidin-PE, MFI
[11] = biological target: T2, human PD-L1 on cells (PHA-activated …); assay: flow cytometry on A375 human melanoma cells, biotin-labeled anti-human IgG Fcγ and streptavidin-PE, MFI

T3 sequence (Q9NZQ7 19-238 limits assumed): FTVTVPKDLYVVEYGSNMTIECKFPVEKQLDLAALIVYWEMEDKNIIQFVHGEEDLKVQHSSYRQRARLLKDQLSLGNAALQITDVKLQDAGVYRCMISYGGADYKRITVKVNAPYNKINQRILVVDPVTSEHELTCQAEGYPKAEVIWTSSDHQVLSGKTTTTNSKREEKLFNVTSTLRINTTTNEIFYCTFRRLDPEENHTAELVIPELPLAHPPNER
T1 sequence (Q9NZQ7 19-238): as the sequence (Q9NZQ7 19-238 limits assumed) above
T2 sequence (Q9NZQ7 19-290): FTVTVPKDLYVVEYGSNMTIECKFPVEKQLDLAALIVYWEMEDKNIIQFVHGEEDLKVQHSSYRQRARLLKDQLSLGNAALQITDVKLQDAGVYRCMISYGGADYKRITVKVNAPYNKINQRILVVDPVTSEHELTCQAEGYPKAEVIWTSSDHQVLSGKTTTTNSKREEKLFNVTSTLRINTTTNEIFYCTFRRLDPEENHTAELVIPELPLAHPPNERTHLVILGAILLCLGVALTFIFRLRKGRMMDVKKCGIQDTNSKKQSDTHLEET

Kd (human PD-L1 ECD-His [1]) [nM]	koff (human PD-L1 ECD-His [1]) [s⁻¹]	kon (human PD-L1 ECD-His [1]) [M⁻¹ s⁻¹]	IC50 (read off the curve) [2] [mg/L]	EC50 (read off the curve) [3] [mg/L]	EC50 (read off the curve) [4] [mg/L]	Improvement over ref-1 (human PD-L1 ECD-His [5]) [fold]	Kd (human PD-L1 ECD-His [6]) [nM]	koff (human PD-L1 ECD-His [6]) [s⁻¹]	kon (human PD-L1 ECD-His [6]) [M⁻¹ s⁻¹]	Binder	also measured
						5.36	0.118	0.000162	1.34e+06	PL2#3 IgG2 (antibody, V domains shown, Human IgG2 backbone) VH: EVQLVQSGGGLVKPGGSLRLSCAASGFTFSSYTMNWVRQAPGKGLEWVSSISSGSDYLYYADSVKGRFTISRDNAKNSLYLQMNSLRAEDTAVYYCARNELRWYPQAGAFDRWGQGTMVTVSS VL: QSVVTQPPSMSAAPGQRVTISCSGSSSYIESSYVGWYQQLPGTAPRLLIYDDDMRPSGIPDRFSGSKSGTSATLAITGLQTGDEADYYCEIWRSGLGGVFGGGTKLTVL	Kd (human PD-L1 ECD-His [7]): 0.516 nM; koff (human PD-L1 ECD-His [7]): 0.000557 s⁻¹; kon (human PD-L1 ECD-His [7]): 1.32e+06 M⁻¹ s⁻¹; Improvement over ref-1 (human PD-L1 ECD-His [8]): 16.3 fold
						2.53	0.25	0.000276	1.14e+06	PL2#3 IgG1 (antibody, V domains shown, Human IgG1) VH: EVQLVQSGGGLVKPGGSLRLSCAASGFTFSSYTMNWVRQAPGKGLEWVSSISSGSDYLYYADSVKGRFTISRDNAKNSLYLQMNSLRAEDTAVYYCARNELRWYPQAGAFDRWGQGTMVTVSS VL: QSVVTQPPSMSAAPGQRVTISCSGSSSYIESSYVGWYQQLPGTAPRLLIYDDDMRPSGIPDRFSGSKSGTSATLAITGLQTGDEADYYCEIWRSGLGGVFGGGTKLTVL	
15.8	0.00453	291000	~0.02		~0.004					PL1 (full-length, N297A mutant human IgG1) (antibody, V domains shown) VH: QIQLVQSGAEVKKPGSSVKVSCKASGGTFSSYAISWVRQAPGQGLEWMGRIIPILGIANYAQKFQGRVTITAGESTSTAYMELSSLRSEDTAVYYCAREGSSGWLGVLDYWGQGTLVTVSS VL: QAVLTQPSSVSGAPGQRVTISCTGSSSNVGAGYDVHWYQQLPGTAPKLLIYGNSNRPSGVPDRFSGSKSGTSASLAITGLQAEDEADYYCQSYDSSLSGWVFGGGTKLTVLG	
			~0.2	~0.005						anti-PD-L1 ref-2 (IgG2) (antibody, V domains shown) VH: EVQLVESGGGLVKPGGSLRLSCAASGFTFSSYGMSWVRQAPGKGLEWVATINSGGSNTYYPDSLKGRFTISRDNAKNSLYLQMNSLRAEDTAVYYCARHDGGAMDYWGQGTTVTVSS VL: DIQMTQSPSSLSASVGDRVTITCRASESIYSYLAWYQQKPGKAPKLLVYNTKTLPEGVPSRFSGSGSGTDFTLTISSLQPEDFATYYCQHHYGTPPWTFGQGTRLEIK	EC50 (read off the curve) [9]: ~0.004 mg/L; EC50 (read off the curve) [10]: ~0.01 mg/L; EC50 (read off the curve) [11]: ~0.002 mg/L

Second part, the binder before the results:

Binder	Kd (human PD-L1 ECD-His [1]) [nM]	koff (human PD-L1 ECD-His [1]) [s⁻¹]	kon (human PD-L1 ECD-His [1]) [M⁻¹ s⁻¹]	IC50 (read off the curve) [2] [mg/L]	EC50 (read off the curve) [3] [mg/L]	EC50 (read off the curve) [4] [mg/L]	Improvement over ref-1 (human PD-L1 ECD-His [5]) [fold]	Kd (human PD-L1 ECD-His [6]) [nM]	koff (human PD-L1 ECD-His [6]) [s⁻¹]	kon (human PD-L1 ECD-His [6]) [M⁻¹ s⁻¹]	also measured
PL2 (full-length, N297A mutant human IgG1) (antibody, V domains shown) VH: EVQLVQSGGGLVKPGGSLRLSCAASGFTFSSYTMNWVRQAPGKGLEWVSSISSGSDYLYYADSVKGRFTISRDNAKNSLYLQMNSLRAEDTAVYYCARNELRWYPQAGAFDIWGQGTMVTVSS VL: QSVVTQPPSMSAAPGQNVTISCSGSSSYIESSYVSWYQQLPGTAPRLLIYDDDMRPSGIPDRFSGSKSGTSATLAITGLQTGDEADYYCEIWDSGLGGVFGGGTKLTVLS	8.72	0.0039	438000	~0.05	~0.005	~0.009					
PL2 IgG1 (antibody, V domains shown) VH: EVQLVQSGGGLVKPGGSLRLSCAASGFTFSSYTMNWVRQAPGKGLEWVSSISSGSDYLYYADSVKGRFTISRDNAKNSLYLQMNSLRAEDTAVYYCARNELRWYPQAGAFDIWGQGTMVTVSS VL: QSVVTQPPSMSAAPGQNVTISCSGSSSYIESSYVSWYQQLPGTAPRLLIYDDDMRPSGIPDRFSGSKSGTSATLAITGLQTGDEADYYCEIWDSGLGGVFGGGTKLTVL							0.41	1.56	0.00193	1.25e+06	
PL2#3 IgG4 (antibody, V domains shown, Human IgG4) VH: EVQLVQSGGGLVKPGGSLRLSCAASGFTFSSYTMNWVRQAPGKGLEWVSSISSGSDYLYYADSVKGRFTISRDNAKNSLYLQMNSLRAEDTAVYYCARNELRWYPQAGAFDRWGQGTMVTVSS VL: QSVVTQPPSMSAAPGQRVTISCSGSSSYIESSYVGWYQQLPGTAPRLLIYDDDMRPSGIPDRFSGSKSGTSATLAITGLQTGDEADYYCEIWRSGLGGVFGGGTKLTVL							2.64	0.239	0.000293	1.26e+06	
PL12 (full-length, N297A mutant human IgG1) (antibody, V domains shown) VH: QVQLVQSGAEVKKPGSSVKVSCKASGGTFSSYAISWVRQAPGQGLEWMGRIIPILGIANYAQKFQGRVTITADKSTSTAYMELSSLRSEDTAVYYCARGIGSYSFGAFDIWGQGTMVTVSS VL: QSVLTQPPSVSGAPGQRVTISCTRSSSNIGAGHDVHWYQQLPGTAPKLLIYGNSNRPSGVPDRFSGSKSGTSASLAITGLQAEDGADYYCQSYDSSLTGVVFGGGTKLTVLG	6.68	0.00267	416000	~0.2	~0.03	~0.03					
PL3 (full-length, N297A mutant human IgG1) (antibody, V domains shown) VH: QVQLVQSGAEVKKPGSSVKVSCKASGGTFSSYTISWVRQAPGQGLEWMGRIIPILGIANYAQKFQGRVTITADKSTSTAYMELSSLRSEDTAVYYCARSRDGYSFGAFDIWGQGTLVTVSS VL: QSVVTQPPPVSGAPGQRVTISCTGSSSNIGAGYDVHWYQQLPGTAPKLLIYGNSNRPSGVPDRFSGSKSGTSASLAITGLQAEDEADYYCQSYDSSLSAPVVFGGGTKLTVLG	11.9	0.0041	348000	~0.1	~0.04	~0.02					
